Test results taken from patent publication US20140271478A1 (University of California, published 2014).
Numbering of substitutions follows the chain as printed. Blank lines part the entries; values can stand above or below the binder they belong to.

Target: T1, mouse integrin β8 (mouse, UniProt Q0VBD0 22-767)
T1 construct: whole, on cells; also called mouse β8; itgb8
T1 sequence (looked up): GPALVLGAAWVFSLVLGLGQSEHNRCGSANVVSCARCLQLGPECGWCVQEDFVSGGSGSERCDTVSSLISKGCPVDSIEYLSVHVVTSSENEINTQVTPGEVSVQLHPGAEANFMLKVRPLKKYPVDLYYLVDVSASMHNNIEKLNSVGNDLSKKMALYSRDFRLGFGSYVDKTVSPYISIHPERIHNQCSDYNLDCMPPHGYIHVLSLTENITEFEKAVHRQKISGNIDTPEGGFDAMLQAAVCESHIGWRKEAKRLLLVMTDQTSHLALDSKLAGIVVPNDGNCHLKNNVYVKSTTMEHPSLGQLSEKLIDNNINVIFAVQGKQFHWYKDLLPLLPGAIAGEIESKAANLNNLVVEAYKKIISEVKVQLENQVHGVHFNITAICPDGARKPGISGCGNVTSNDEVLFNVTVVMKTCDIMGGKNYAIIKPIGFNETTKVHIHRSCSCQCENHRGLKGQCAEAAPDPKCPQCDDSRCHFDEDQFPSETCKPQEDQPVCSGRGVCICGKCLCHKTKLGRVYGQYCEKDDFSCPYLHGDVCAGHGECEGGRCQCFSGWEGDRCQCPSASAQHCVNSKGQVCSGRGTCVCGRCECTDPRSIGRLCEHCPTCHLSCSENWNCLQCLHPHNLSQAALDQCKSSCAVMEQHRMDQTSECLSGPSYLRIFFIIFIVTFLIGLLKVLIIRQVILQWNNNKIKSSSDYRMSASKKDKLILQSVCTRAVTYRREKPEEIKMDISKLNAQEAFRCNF
Assay: cell surface staining, flow cytometry

- binding result: no binding
B1: 14E5 antibody (antibody, V domains shown)
VH: EVQLQQSGAELMKPGASVKISCKATGYTFSTYWIEWIKQRPGHGLEWIGHILPGSVITNYNEKFKGKAAITADTSSNTSYMQLSSLTSEDSAVYYCARWGWDSYWGQGTLVTVSS
VL: DIEMTQSPSSLSASLGDRVTISCSTSQDISSSLNWYQQKPDGTVTLLIYYTSNLHSGVPSRFSGSGSGTDYSLTISNLEPEDIATYYCQQYSKLPYTFGGGTKLEIKR
notes: Mouse hybridoma antibody; also called hybridoma clone 14E5

- binding result: no binding
B2: 11E8 antibody (antibody, V domains shown)
VH: EVQLQQSGPELMKTGASVKISCKATGYTFSSYWIEWVKQRPGHGLEWIGDILPGSGTTNYNEKFKGRATVTADRSSNTAYMQLSSLTYGDSAVYYCATWGWDTYWDQGTSVTVSS
VL: B1 VL with E3V, T25A, D28G, S31N, S32Y, T45K, N53S, K93N
notes: Mouse hybridoma antibody
